According to the supplement of paper PMC7877785:
± gives the uncertainty stated by the source.

Test: self-splicing fitness, log relative to wild type (ln ratio); higher = more splicing; Tetrahymena group I intron in knt gene, E. coli kanamycin selection, DiMSum; sequences stand for … in CUCUCU…GGAGGGAAAAGUUAUCAGGCAUGCACCUGGUAGCUAGUCUUUAAACCAAUAGAUUGCAUCGGUUUAAAAGGCAAGACCGUCAAAUUGCGGGAAAGGGGUCAACAGCCGUUCAGUACCAAGUCUCAGGGGAAACUUUGAGAUGGCCUUGCAAAGGGUAUGGUAAUAAGCUGACGGACAUGGUCCUAACCACGCAGCCAAGUCCUAAGUCAACAGAUCUUCUGUUGAUAUGGAUGCAGUUCACAGACUAAAUGUCGGUCGGGGAAGAUGUAUUCUUCUCAUAAGAUAUAGUCGGACCUCUCCUUAAUGGGAGCUAGCGGAUGAAGUGAUGCAACACUGGAGCCGCUGGGAACUAAUUUGUAUGCGAAAGUAUAUUGAUUAGUUUUGGAGUACUCGUGGUCG
Outline: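 Fitness was computed with DiMSum as the error-weighted combination of replicate fold changes, kanamycin versus none, each normalised to wild type. The library randomised all eight intron nucleotides of the P1ex region, with the intron placed in the knt kanamycin-resistance gene on pET-22b(+) in E. coli BL21(DE3). Six replicate transformations were grown overnight at 37°C or 30°C on LB agar with or without 25 μg/mL kanamycin, plus 100 μg/mL carbenicillin, 50 μM IPTG and 0.2% rhamnose. Pooled colonies were amplicon-sequenced on an Illumina HiSeq 2500.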

| Sequence | self-splicing fitness (ln) (30 °C) | self-splicing fitness (ln) (37 °C) |
| --- | --- | --- |
| CUUGAGCAAUAUUACGAAAA | -2.53 ± 0.38 | -1.92 ± 0.38 |
| UCCAAGCAAUAUUACGCUGU | -2.3 ± 0.14 | -2.25 ± 0.17 |
| UGGUAGCAAUAUUACGGUUA | -0.381 ± 0.12 | 0.439 ± 0.15 |
| AGUCAGCAAUAUUACGGUGC | -1.68 ± 0.14 | -1.07 ± 0.19 |
| AUCAAGCAAUAUUACGUAUU | -2.7 ± 0.09 | -1.5 ± 0.11 |
| AAAGAGCAAUAUUACGACCC | -2.42 ± 0.45 |  |
| AUUGAGCAAUAUUACGAAAU | -3.34 ± 0.12 | -2.88 ± 0.16 |
| AGGAAGCAAUAUUACGGAGC | -2.78 ± 0.21 | -1.61 ± 0.3 |
| GGUCAGCAAUAUUACGCGCC | 0.245 ± 0.39 |  |
| UGCUAGCAAUAUUACGUUUA | -3.11 ± 0.19 | -1.27 ± 0.12 |
| CUCUAGCAAUAUUACGCAGA | -4.08 ± 0.31 | -3.59 ± 0.22 |
| UUCAAGCAAUAUUACGUCGC | -4.02 ± 0.3 | -2.17 ± 0.3 |
| UUAAAGCAAUAUUACGGGAC | -3.27 ± 0.24 | -2.24 ± 0.28 |
| GUCAAGCAAUAUUACGGCAG |  | -2.86 ± 0.29 |
| ACAUAGCAAUAUUACGACCC | -0.944 ± 0.36 | -0.798 ± 0.32 |
| UAAAAGCAAUAUUACGAUCU | -0.413 ± 0.079 | 0.0961 ± 0.099 |
| UCCAAGCAAUAUUACGCUUU | -3.8 ± 0.18 | -2.16 ± 0.19 |
| CCUGAGCAAUAUUACGGAAC | -2.63 ± 0.33 | -1.66 ± 0.31 |
| AGAUAGCAAUAUUACGAGGC | -0.902 ± 0.39 | -0.819 ± 0.21 |
| UCUCAGCAAUAUUACGUGGU | -1.7 ± 0.1 | -2.48 ± 0.16 |

| Sequence | self-splicing fitness (ln) (30 °C) | self-splicing fitness (ln) (37 °C) |
| --- | --- | --- |
| CGACAGCAAUAUUACGAGCG | -2.02 ± 0.13 | -0.549 ± 0.099 |
| CUCAAGCAAUAUUACGGCUU | -3.53 ± 0.18 | -2.65 ± 0.21 |
| GCUCAGCAAUAUUACGGAGC |  | -1.82 ± 0.44 |
| UCUGAGCAAUAUUACGAGUG | -3.98 ± 0.4 | -1.24 ± 0.22 |
| AUCAAGCAAUAUUACGCACU | -0.00274 ± 0.081 | 0.0749 ± 0.097 |
| ACUGAGCAAUAUUACGCGUC | -4.21 ± 0.29 | -2.35 ± 0.21 |
| UCGCAGCAAUAUUACGUAUU | -3.64 ± 0.15 | -1.85 ± 0.12 |
| GAGAAGCAAUAUUACGUUUU | -2.39 ± 0.14 | -1.96 ± 0.17 |
| CGACAGCAAUAUUACGUAGG | -0.919 ± 0.062 | -0.934 ± 0.076 |
| UCAAAGCAAUAUUACGCGAA | -1.88 ± 0.11 | -0.986 ± 0.12 |
| UAACAGCAAUAUUACGCCAU | -3.93 ± 0.22 | -2.11 ± 0.17 |
| GGGUAGCAAUAUUACGACAU | -0.113 ± 0.015 | 0.159 ± 0.034 |
| UAUCAGCAAUAUUACGGAAC | -1.44 ± 0.21 |  |
| ACUUAGCAAUAUUACGGCUC | -0.897 ± 0.061 | -0.503 ± 0.077 |
| AGUCAGCAAUAUUACGGACG | -0.173 ± 0.07 | 0.0506 ± 0.1 |
| GCUAAGCAAUAUUACGAUUU | -0.73 ± 0.065 | 0.0848 ± 0.075 |
| CCCUAGCAAUAUUACGUUCC | -2.3 ± 0.22 | -2.11 ± 0.24 |
| AGUUAGCAAUAUUACGGGGG | -2.04 ± 0.27 | -1.38 ± 0.31 |
| UACAAGCAAUAUUACGAUAU | -2.75 ± 0.15 | -1.66 ± 0.19 |
